Target: T1, His-tagged Stx6 (aa 1–234) (human, UniProt O43752 1-234)
T1 sequence: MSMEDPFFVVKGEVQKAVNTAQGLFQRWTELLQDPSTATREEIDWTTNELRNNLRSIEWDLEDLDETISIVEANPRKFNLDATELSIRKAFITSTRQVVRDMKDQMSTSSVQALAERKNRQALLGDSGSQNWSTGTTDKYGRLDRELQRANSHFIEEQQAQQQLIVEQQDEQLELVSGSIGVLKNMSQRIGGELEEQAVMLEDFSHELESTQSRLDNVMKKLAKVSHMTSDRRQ
Assay: pull-down

B1: GST-Cog6 (aa 1–200), bacterial (domain or fragment)
chain: MAEGSGEVVAVSATGAANGLNNGAGGTSATTCNPLSRKLHKILETRLDNDKEMLEALKALSTFFVENSLRTRRNLRGDIERKSLAINEEFVSIFKEVKEELESISEDVQAMSNCCQDMTSRLQAAKEQTQDLIVKTTKLQSESQKLEIRAQVADAFLSKFQLTSDEMSLLRGTREGPITEDFFKALGRVKQIHNDVKVLL
- binding result: binds

Reference: PMC3153647 (The Journal of Cell Biology, 2011)
